Data published in the RNAGym collection of RNA variant scans (doi:10.1093/nar/gkz1192).

B1: CPEB3 Ribozyme (parent)
chain: UAACAGGGGGCCACAGCAGAAGCGUUCACGUCGCAGCCCCUGUCAGAUUCUGGUGAAUCUGCGAAUUCUGCUGUAUAUCUC

Variants of: B1
Assay: self-cleavage, relative activity (ratio to wild type); higher = more cleavage; in vitro, sequencing
Procedure, shortened: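 After error-prone PCR and barcoding, CPEB3 ribozyme mutant libraries were transcribed with T7 RNA polymerase at 37°C for 5 hours, then given 15 min with DNase I before an EDTA stop, and they cleaved during both steps. Reverse transcription with template switching preceded Illumina sequencing. Relative activity divides a variant's cleaved/total read fraction by the unmutated ribozyme's. At least 5 reads were required per variant, and three batches were averaged.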

| Variant | self-cleavage |
| --- | --- |
| UAACAGGGGGCCACAGCAGGAGCGUUCACGUCGCAGCCCAUGUCAGAUUCUGGUGAAUCUGCGAAUUCUGCUGUAUAUCUC [A20G C40A] | 0.23 |
| UAACAGGGGGCCACAGCAGGAGCGUUCACGUCGCAGCCCUUGUCAGAUUCUGGUGAAUCUGCGAAUUCUGCUGUAUAUCUC [A20G C40U] | 0.46 |
| UAACAGGGGGCCACAGCAGGAGCGUUCACGUCGCAGCCCCUGUCAGAUUGUGGUGAAUCUGCGAAUUCUGCUGUAUAUCUC [A20G C50G] | 0.57 |
| UAACAGGGGGCCACAGCAGGAGCGUUCACGUCGCAGCCCCUGUCAGAUUUUGGUGAAUCUGCGAAUUCUGCUGUAUAUCUC [A20G C50U] | 0.99 |
| UAACAGGGGGCCACAGCAGGAGCGUUCACGUCGCAGCCCCUGUCAGAUUAUGGUGAAUCUGCGAAUUCUGCUGUAUAUCUC [A20G C50A] | 0.89 |
| UAACAGGGGGCCACAGCAGGAGCGUUCACGUCGCAGCCCCUGUCAGAUUCUGGUGAAUCUGCGAAUUCUGCUGUAUAUCUU [A20G C81U] | 1.09 |
| UAACAGGGGGCCACAGCAGGAGCGUUCACGUCGCAGCCCCUGUCAGAUUCUGGUGAAUCUGCGAAUUCUGCUGUAUAUCUA [A20G C81A] | 1.09 |
| UAACAGGGGGCCACAGCAGGAGCGUUCACGUCGCAGCCCCUGUCAGAUUCUGGUGAAUCUGCGAAUUCUGCUGUAUAUCUG [A20G C81G] | 0.88 |
| UAACAGGGGGCCACAGCAGGAGCGUUCACGUCGCAGCUCCUGUCAGAUUCUGGUGAAUCUGCGAAUUCUGCUGUAUAUCUC [A20G C38U] | 0.37 |
| UAACAGGGGGCCACAGCAGGAGCGUUCACGUCGCAGCACCUGUCAGAUUCUGGUGAAUCUGCGAAUUCUGCUGUAUAUCUC [A20G C38A] | 0.37 |
| UAACAGGGGGCCACAGCAGGAGCGUUCACGUCGCAGCGCCUGUCAGAUUCUGGUGAAUCUGCGAAUUCUGCUGUAUAUCUC [A20G C38G] | 0.12 |
| UAACAGGGGGCCACAGCAGGAGCGUUCACGUCGCAGCCACUGUCAGAUUCUGGUGAAUCUGCGAAUUCUGCUGUAUAUCUC [A20G C39A] | 0.37 |
| UAACAGGGGGCCACAGCAGGAGCGUUCACGUCGCAGCCUCUGUCAGAUUCUGGUGAAUCUGCGAAUUCUGCUGUAUAUCUC [A20G C39U] | 0.63 |
| UAACAGGGGGCCACAGCAGGAGCGUUCACGUCGCAACCCCUGUCAGAUUCUGGUGAAUCUGCGAAUUCUGCUGUAUAUCUC [A20G G36A] | 0.36 |
| UAACAGGGGGCCACAGCAGGAGCGUUCACGUCGCAGCCCCUGUCAGAUUCUGGUGAAUCUGCGAAUUCUGAUGUAUAUCUC [A20G C71A] | 0.15 |
| UAACAGGGGGCCACAGCAGGAGCGUUCACGUCGCAGCCCCUGUCAGAUUCUGGUGAAUCUGCGAAUUCUGGUGUAUAUCUC [A20G C71G] | 0.14 |
| UAACAGGGGGCCACAGCAGGAGCGUUCACGUCGCAGCCCCUGUCAGAUUCUGGUGAAUCUGCGAAUUCUGUUGUAUAUCUC [A20G C71U] | 0.56 |

| Variant | self-cleavage |
| --- | --- |
| UAACAGGGGGCCACAGCAGGAGCGUUCACGUCCCAGCCCCUGUCAGAUUCUGGUGAAUCUGCGAAUUCUGCUGUAUAUCUC [A20G G33C] | 0.14 |
| UAACAGGGGGCCACAGCAGGAGCGUUCACGUCUCAGCCCCUGUCAGAUUCUGGUGAAUCUGCGAAUUCUGCUGUAUAUCUC [A20G G33U] | 0.29 |
| UAACAGGGGGCCACAGCAGGAGCGUUCACGUCACAGCCCCUGUCAGAUUCUGGUGAAUCUGCGAAUUCUGCUGUAUAUCUC [A20G G33A] | 0.35 |
| UAACAGGGGGCCACAGCAGGAGCGUUAACGUCGCAGCCCCUGUCAGAUUCUGGUGAAUCUGCGAAUUCUGCUGUAUAUCUC [A20G C27A] | 0.16 |
| UAACAGGGGGCCACAGCAGGAGCGUUUACGUCGCAGCCCCUGUCAGAUUCUGGUGAAUCUGCGAAUUCUGCUGUAUAUCUC [A20G C27U] | 0.47 |
| UAACAGGGGGCCACAGCAGGAGCGUUCACGUCGCAGGCCCUGUCAGAUUCUGGUGAAUCUGCGAAUUCUGCUGUAUAUCUC [A20G C37G] | 0.78 |
| UAACAGGGGGCCACAGCAGGAGCGUUCACGUCGCAGUCCCUGUCAGAUUCUGGUGAAUCUGCGAAUUCUGCUGUAUAUCUC [A20G C37U] | 0.62 |
| UAACAGGGGGCCACAGCAGGAGCGUUCACGUCGCAGACCCUGUCAGAUUCUGGUGAAUCUGCGAAUUCUGCUGUAUAUCUC [A20G C37A] | 0.41 |
| UAACAGGGGGCCACAGCAGGAGCGUUCACGUCGCAGCCCCUUUCAGAUUCUGGUGAAUCUGCGAAUUCUGCUGUAUAUCUC [A20G G42U] | 0.22 |
| UAACAGGGGGCCACAGCAGGAGCGUUCACGUCGCAGCCCCUAUCAGAUUCUGGUGAAUCUGCGAAUUCUGCUGUAUAUCUC [A20G G42A] | 0.53 |
| UAACAGGGGGCCACAGCAGGAGCGUUCACUUCGCAGCCCCUGUCAGAUUCUGGUGAAUCUGCGAAUUCUGCUGUAUAUCUC [A20G G30U] | 0.25 |
| UAACAGGGGGCCACAGCAGGAGCGUUCACCUCGCAGCCCCUGUCAGAUUCUGGUGAAUCUGCGAAUUCUGCUGUAUAUCUC [A20G G30C] | 0.24 |
| UAACAGGGGGCCACAGCAGGAGCGUUCACAUCGCAGCCCCUGUCAGAUUCUGGUGAAUCUGCGAAUUCUGCUGUAUAUCUC [A20G G30A] | 0.3 |
| UAACAGGGGGCCACAGCAGGAGCGUUCACGUCGCAGCCCCUGUCAGAUUCUGGUGAAUUUGCGAAUUCUGCUGUAUAUCUC [A20G C59U] | 0.82 |
| UAACAGGGGGCCACAGCAGGAGCGUUCACGUCGCAGCCCCUGUCAGAUUCUGGUGAAUGUGCGAAUUCUGCUGUAUAUCUC [A20G C59G] | 0.45 |
| UAACAGGGGGCCACAGCAGGAGCUUUCACGUCGCAGCCCCUGUCAGAUUCUGGUGAAUCUGCGAAUUCUGCUGUAUAUCUC [A20G G24U] | 0.14 |
| UAACAGGGGGCCACAGCAGGAGCAUUCACGUCGCAGCCCCUGUCAGAUUCUGGUGAAUCUGCGAAUUCUGCUGUAUAUCUC [A20G G24A] | 0.29 |
